Assay results as given in PMC9761383 (2022).
Each block holds one molecule with its values, some of them ahead of it.

How the values were obtained:
[1] = target: collagen α1α1α2(IV) purified from conditioned culture medium of LH3 KO PFHR9 cells (mouse (endogenous in PFHR9)); assay: rotary shadow electron microscopy; purified collagen α1α1α2(IV) (about 100 μg/ml) in 0.2 M acetic acid, 70% glycerol, sprayed on mica, carbon/platinum shadowed; molecules counted (WT n = 690, LH3 KO n = 295); hexamers = two heterotrimers, dodecamers = four heterotrimers
[2] = target: collagen α1α1α2(IV) purified from conditioned culture medium of WT PFHR9 cells (mouse (endogenous in PFHR9)); assay: as above
[3] = target: T1, collagen α1α1α2(IV) purified from conditioned culture medium of WT PFHR9 cells (mouse (endogenous in PFHR9), hydroxylysines, almost fully modified to glucosyl galactosyl Hyl; 4-hydroxyproline; 3-hydroxyproline | hydroxylysines, almost fully modified to glucosyl galactosyl Hyl; 4-hydroxyproline; …); assay: SPR
[4] = target: T2, collagen α1α1α2(IV) purified from conditioned culture medium of LH3 KO PFHR9 cells (mouse (endogenous in PFHR9), more unmodified lysines (significantly fewer hydroxylysines)); high occupancy of galactosyl Hyl but not glucosyl galactosyl Hyl; prolyl 4 hydroxylation reduced | more unmodified lysines (significantly …); assay: SPR
[5] = target: T1, collagen α1α1α2(IV) purified from …; assay: SPR; remark: listed apart in the source
[6] = target: T2, collagen α1α1α2(IV) purified from …; assay: SPR; remark: listed apart in the source

T1 sequence (P02463 28-1669, chain 1 of 2): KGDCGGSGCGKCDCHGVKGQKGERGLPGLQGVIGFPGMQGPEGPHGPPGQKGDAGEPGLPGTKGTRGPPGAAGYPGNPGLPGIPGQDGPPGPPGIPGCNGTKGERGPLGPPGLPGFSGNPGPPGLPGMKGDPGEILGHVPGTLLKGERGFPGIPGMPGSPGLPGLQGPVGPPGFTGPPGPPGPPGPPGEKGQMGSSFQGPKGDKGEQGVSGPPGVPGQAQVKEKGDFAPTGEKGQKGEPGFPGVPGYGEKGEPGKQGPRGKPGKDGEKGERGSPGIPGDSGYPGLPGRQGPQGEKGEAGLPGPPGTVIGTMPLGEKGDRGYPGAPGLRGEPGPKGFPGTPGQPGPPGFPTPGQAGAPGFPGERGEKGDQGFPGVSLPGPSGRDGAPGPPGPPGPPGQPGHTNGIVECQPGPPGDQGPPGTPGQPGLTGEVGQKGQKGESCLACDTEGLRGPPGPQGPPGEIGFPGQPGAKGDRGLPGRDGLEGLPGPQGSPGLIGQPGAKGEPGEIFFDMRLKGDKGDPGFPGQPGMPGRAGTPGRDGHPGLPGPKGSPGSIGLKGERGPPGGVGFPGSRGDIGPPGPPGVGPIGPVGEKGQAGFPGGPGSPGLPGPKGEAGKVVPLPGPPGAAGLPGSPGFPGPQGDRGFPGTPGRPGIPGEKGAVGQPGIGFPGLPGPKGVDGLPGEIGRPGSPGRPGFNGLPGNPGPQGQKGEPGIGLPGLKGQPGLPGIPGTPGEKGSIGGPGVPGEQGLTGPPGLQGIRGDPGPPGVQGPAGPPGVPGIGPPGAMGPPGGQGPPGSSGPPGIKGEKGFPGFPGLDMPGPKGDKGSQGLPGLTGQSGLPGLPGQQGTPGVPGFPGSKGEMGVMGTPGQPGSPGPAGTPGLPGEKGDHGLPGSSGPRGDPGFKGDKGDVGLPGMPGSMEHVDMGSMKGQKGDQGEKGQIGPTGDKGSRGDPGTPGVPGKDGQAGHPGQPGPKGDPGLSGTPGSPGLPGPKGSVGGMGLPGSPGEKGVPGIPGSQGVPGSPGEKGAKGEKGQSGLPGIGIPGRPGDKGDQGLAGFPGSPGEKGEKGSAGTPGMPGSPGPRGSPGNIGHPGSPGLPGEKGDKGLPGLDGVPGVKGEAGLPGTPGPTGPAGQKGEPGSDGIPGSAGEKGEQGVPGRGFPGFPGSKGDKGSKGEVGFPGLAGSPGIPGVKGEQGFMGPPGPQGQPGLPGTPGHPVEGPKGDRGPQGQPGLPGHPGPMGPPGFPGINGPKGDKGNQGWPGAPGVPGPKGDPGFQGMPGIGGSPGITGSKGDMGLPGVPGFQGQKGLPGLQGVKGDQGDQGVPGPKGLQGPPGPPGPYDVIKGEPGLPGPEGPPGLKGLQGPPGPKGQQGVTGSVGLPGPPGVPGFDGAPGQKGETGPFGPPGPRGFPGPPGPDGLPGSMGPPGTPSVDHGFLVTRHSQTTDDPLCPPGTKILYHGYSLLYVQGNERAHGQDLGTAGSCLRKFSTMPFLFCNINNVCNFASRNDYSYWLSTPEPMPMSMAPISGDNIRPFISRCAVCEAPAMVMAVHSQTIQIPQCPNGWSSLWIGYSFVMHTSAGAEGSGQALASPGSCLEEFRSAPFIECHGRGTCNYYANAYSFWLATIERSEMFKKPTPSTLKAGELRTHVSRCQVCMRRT
T1 sequence (P08122 26-1707, chain 2 of 2, further chain): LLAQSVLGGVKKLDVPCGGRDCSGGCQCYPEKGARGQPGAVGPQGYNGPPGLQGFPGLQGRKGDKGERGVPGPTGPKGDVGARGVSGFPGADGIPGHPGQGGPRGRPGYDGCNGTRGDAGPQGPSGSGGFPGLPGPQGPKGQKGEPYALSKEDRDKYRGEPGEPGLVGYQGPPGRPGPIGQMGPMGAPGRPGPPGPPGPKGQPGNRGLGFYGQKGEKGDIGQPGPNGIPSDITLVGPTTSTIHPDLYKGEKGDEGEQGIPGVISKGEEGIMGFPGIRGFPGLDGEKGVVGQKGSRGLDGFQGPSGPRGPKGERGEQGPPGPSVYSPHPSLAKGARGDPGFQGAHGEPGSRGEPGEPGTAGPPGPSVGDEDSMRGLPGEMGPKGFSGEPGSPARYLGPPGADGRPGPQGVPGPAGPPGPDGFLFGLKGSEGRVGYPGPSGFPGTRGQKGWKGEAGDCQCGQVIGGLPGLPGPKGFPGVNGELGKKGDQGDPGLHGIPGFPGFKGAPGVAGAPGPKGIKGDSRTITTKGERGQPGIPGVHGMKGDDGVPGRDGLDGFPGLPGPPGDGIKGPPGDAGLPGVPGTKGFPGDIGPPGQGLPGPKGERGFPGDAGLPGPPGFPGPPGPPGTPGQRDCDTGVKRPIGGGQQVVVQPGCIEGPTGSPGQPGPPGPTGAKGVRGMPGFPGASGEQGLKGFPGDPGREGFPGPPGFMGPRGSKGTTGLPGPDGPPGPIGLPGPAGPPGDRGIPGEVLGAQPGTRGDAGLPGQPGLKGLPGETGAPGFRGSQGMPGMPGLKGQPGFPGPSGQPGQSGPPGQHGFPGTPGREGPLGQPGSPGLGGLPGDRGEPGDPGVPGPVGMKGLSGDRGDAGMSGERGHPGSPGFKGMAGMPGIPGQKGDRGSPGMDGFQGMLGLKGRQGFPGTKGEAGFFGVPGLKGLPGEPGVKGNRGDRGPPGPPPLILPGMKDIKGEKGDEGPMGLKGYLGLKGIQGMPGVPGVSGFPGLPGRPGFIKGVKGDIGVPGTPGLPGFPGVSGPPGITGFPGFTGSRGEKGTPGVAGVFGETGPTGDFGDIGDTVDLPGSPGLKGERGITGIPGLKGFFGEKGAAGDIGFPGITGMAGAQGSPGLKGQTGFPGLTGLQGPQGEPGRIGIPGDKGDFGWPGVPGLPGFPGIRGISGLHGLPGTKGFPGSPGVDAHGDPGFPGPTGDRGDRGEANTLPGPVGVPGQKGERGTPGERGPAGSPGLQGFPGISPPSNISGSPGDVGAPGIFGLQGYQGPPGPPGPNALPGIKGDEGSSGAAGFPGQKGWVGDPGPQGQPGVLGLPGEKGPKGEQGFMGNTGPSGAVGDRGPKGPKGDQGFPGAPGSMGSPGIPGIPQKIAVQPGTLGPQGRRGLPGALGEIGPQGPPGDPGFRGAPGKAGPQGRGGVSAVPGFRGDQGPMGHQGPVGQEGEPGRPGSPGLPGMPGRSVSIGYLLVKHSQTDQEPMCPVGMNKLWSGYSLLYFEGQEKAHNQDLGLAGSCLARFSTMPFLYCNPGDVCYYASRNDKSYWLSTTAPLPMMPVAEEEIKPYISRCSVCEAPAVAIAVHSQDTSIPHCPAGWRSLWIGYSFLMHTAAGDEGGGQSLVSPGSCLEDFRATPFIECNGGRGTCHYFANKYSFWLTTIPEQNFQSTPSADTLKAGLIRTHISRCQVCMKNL
T2 sequence (P02463 28-1669, chain 1 of 2): as the sequence (P02463 28-1669, chain 1 of 2) above
T2 sequence (P08122 26-1707, chain 2 of 2, further chain): as the sequence (P08122 26-1707, chain 2 of 2, further chain) above

- percent of molecules seen as shortened hexamers (two heterotrimers) [1]: 7.8%
Molecule: collagen α1α1α2(IV) purified from conditioned culture medium of LH3 KO PFHR9 cells (complex)

- percent of molecules seen as dodecamers (four heterotrimers) [2]: 9%
- percent of molecules seen as hexamers (two heterotrimers) [2]: 8.5%
Molecule: collagen α1α1α2(IV) purified from conditioned culture medium of WT PFHR9 cells (complex)

- koff [3]: 0.0226 s⁻¹
- koff [4]: 0.107 s⁻¹
- Kd [5]: 17.9 nM
- Kd [6]: 116 nM
B1: heat shock protein 47 (natural protein)
chain: VPSEDRKLSDKATTLADRSTTLAFNLYHAMAKDKNMENILLSPVVVASSLGLVSLGGKATTASQAKAVLSADKLNDDYVHSGLSELLNEVSNSTARNVTWKIGNRLYGPASINFADDFVKNSKKHYNYEHSKINFRDKRSALKSINEWAAQTTDGKLPEVTKDVEKTDGALIVNAMFFKPHWDEKFHHKMVDNRGFMVTRSYTVGVPMMHRTGLYNYYDDEAEKLQVVEMPLAHKLSSMIFIMPNHVEPLERVEKLLNREQLKTWASKMKKRSVAISLPKVVLEVSHDLQKHLADLGLTEAIDKTKADLSKISGKKDLYLSNVFHAAALEWDTDGNPYDADIYGREEMRNPKLFYADHPFIFMIKDSKTNSILFIGRLVRPKGDKMRDEL
